Experimental data: patent publication US20260159551A1 (SRI INTERNATIONAL, published 2026)
Ends that are not written are not given here.

Legend:
[1] = molecular target: T1, Recombinant human transferrin receptor (human, UniProt P02786 89-760, limits assumed); experiment: ELISA: recombinant human transferrin receptor coated at 1 ug/mL, biotinylated peptide titrated, detection with streptavidin-HRP/TMB, absorbance at 450 nm
T1 construct: Recombinant protein; also called transferrin receptor (human protein)
Protocol: (§1) Recombinant human transferrin receptor was absorbed onto high binding ELISA plates at 1 μg/mL. […] Retained MTS peptide was detected using streptavidin-HRP and TMB reagent. The absorbance was measured at 450 nm and is proportional to the amount of MTS peptide captured by transferrin receptor. As shown, MTS2_V1-2 binds to […] in a concentration dependent manner which saturates at higher concentrations. By comparison, MTS3_V1-2 and a scrambled control peptide of MTS2_V1-2 show no binding. The binding affinity of MTS2_V1-2 for transferrin receptor was determined by biolayer interferometry on a OctetRED 96 system. The biotinylated MTS2_V1-2 peptide was captured on streptavidin probe. The kon and koff rate were determined at various concentrations of human or mouse transferrin receptor allowing for determination of the dissociation constant.

[2] = molecular target: T1, Recombinant human transferrin receptor; experiment: biolayer interferometry (OctetRED 96); biotinylated peptide on streptavidin probe, receptor as analyte; human transferrin receptor
Protocol: as §1

[3] = molecular target: T2, Mouse transferrin receptor (mouse, UniProt Q62351 89-763, limits assumed); experiment: biolayer interferometry (OctetRED 96); biotinylated peptide on streptavidin probe, receptor as analyte; mouse transferrin receptor
T2 construct: Used as the analyte in BLI; also called mouse receptor
Protocol: as §1

T1 sequence (P02786 89-760 limits assumed): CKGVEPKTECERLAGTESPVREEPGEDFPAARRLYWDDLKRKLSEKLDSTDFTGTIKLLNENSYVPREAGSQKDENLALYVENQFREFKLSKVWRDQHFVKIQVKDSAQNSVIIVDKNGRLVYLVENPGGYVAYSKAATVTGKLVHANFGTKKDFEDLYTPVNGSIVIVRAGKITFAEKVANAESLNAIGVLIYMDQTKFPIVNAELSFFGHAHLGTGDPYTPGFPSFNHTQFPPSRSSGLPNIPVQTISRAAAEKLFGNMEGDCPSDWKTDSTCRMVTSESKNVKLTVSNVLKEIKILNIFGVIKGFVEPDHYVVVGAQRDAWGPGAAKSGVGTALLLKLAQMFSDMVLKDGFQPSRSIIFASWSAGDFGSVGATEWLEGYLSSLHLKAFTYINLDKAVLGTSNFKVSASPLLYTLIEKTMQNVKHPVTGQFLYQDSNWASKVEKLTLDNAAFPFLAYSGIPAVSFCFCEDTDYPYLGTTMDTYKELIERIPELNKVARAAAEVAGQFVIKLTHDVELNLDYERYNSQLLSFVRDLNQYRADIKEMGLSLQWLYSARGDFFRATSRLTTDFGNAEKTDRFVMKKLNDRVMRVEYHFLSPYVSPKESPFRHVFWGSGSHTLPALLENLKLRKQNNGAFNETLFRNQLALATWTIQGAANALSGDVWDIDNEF
T2 sequence (Q62351 89-763 limits assumed): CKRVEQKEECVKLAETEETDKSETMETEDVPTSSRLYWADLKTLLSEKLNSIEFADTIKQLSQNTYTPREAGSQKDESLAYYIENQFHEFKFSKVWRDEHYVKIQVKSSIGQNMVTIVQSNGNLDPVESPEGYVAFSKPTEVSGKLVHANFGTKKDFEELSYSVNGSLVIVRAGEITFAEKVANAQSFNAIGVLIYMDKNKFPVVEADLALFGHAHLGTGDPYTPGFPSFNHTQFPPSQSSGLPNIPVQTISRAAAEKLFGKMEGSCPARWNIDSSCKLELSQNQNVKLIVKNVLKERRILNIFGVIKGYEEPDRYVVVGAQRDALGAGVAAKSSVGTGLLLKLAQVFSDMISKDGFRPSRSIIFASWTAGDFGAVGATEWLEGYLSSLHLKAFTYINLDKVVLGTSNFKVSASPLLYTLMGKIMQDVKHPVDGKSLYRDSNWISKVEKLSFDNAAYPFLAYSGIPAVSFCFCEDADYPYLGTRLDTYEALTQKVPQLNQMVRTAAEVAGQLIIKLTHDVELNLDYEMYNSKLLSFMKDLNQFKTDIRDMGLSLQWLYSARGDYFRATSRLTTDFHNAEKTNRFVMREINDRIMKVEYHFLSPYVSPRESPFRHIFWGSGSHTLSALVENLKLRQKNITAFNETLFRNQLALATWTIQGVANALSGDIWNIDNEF

Row | binding result [1] | Kd [2] | EC50 (read off the curve) [1] | Kd [3] | Binder
1 | no binding (tested: 1000 nM) | – | – | – | Ac-SKETYSMNAQRQHERS (also: dimer: C-terminus joined through a linker to a dimeric core, biotinylated, place not given here, Biotinylated for the ELISA; also called dimer version of MTS3_V1; biotinylated MTS3_V1-2) [MTS3_V1-2 (biotinylated dimeric Ac-SKETYSMNAQRQHERS)]
2 | – | 210 nM | ~100 nM | 12 nM | Ac-FPSWTSKNQQWTNQRQ (also: dimer: C-terminus joined through a linker to a dimeric core, biotinylated, place not given here, Biotinylated for the ELISA and for capture on the streptavidin probe in BLI; also called dimer version of MTS2_V1; biotinylated MTS2_V1-2) [MTS2_V1-2 (biotinylated dimeric Ac-FPSWTSKNQQWTNQRQ)]
